Experimental data from patent US20030157533A1, “Nucleic acid labeling by Thermoanaerobacter thermohydrosulfuricus DNA polymerase I variants” (priority 2001, published 2003).

Legend:
Assay type in all cases: biochemical
[1] = test system: defined DNA template-DNA primer; assay: Single nucleotide incorporation of dye-dCTP during DNA dependent DNA synthesis (FIG. 13)
Experimental: (§1) Optimized 1×buffer compositions for Reverse Transcriptase (RNA dependent DNA Polymerase) and DNA Polymerase (DNA dependent DNA polymerase) reactions for all variants of Tts Pol I are as follows. Tris, pH 8.0 (50 mM), KCl (40 mM), MgCl2 (3 mM), DTT (1 mM), DNA or RNA template (as needed), primer (5 to 50 femto mols), enzyme 0.5 to 1 units, dNTP or dNTP analog (varying concentrations as needed). In standard synthesis reactions, when full-length synthesis is monitored, 50 uM of all 4 dNTPs are included. Typical reaction volume is 10 ul. Reaction temperature was kept between 37-60 C. depending on the experimental needs. Reaction time was limited to 10 minutes for single nucleotide incorporation studies. Time was varied as needed for the purpose of the experiments, sometimes up to 1 hour if longer extensions are monitored.
Primer extension was monitored using a defined DNA template-DNA primer.
In this experiment the relative efficiencies of incorporation of dye-CTP (Cy3.5-dCTP) was investigated. Three enzyme preparations were tested ΔTts, ΔTtsF412Y, and ΔTtsF412YD426R
Defined DNA shown below served as the template. A P-33 labeled primer (DNA 25 mer) was annealed to the template. Reactions were performed with varying concentrations of either Cy3.5-dCTP or dCTP alone. Inclusion of only one dNTP allowed incorporation of the next correct nucleotide alone. The sequence of the template-primer that allowed for the examination of single nucleotide “C” incorporation is shown below.
Lanes 1, 2, 3, 4 and 5 contain 20, 2, 0.2, 0.02 and 0 uM dye-dCTP. Lane 5 has no enzyme, to show the integrity of the starting p-33 labeled primer. Quantification of the single nucleotide extension product is one way to tell if DR change in the enzyme led to any consequence. “P” indicates a radio labeled primer. “P+1” represents the elongated product by a single nucleotide or nucleotide analog. P+1 migrates slowly with the dye-dNTP conjugate. Note that the migration of Cy3.5-dCTP containing band travel slowly on the gel compared to dCMP extended products. […] P+1 product is achieved between 10-100 fold less concentration of dye-dCTP with the enzyme having the DR change. Essentially, incorporation is achieved at a much lower concentration of dye-dNMP compared to the wild type enzyme. It is evident that the DR enzyme was able to incorporate Cy3.5-dCTP at concentrations as low as 0.2 uM or even lower.

[2] = test system: Globin mRNA template annealed to P-33 labeled primer; assay: Single nucleotide incorporation of Cy3.5-dCTP or dCTP on RNA template (reverse transcriptase reaction, FIG. 7)
Experimental: The experiment shown in FIG. 7 investigates the relative efficiencies of incorporation of dye-CTP (Cy3.5-dCTP) and dCTP. Three enzyme preparations ΔTts, ΔTts F412Y, ΔTtsF412YD426R were analyzed in this experiment.
as §1
The experiment shown in FIG. 7 investigates the relative efficiencies of incorporation of dye-CTP (Cy3.5-dCTP) and dCTP. Three enzyme preparations ΔTts, ΔTtsFY, ΔTtsF412YD426R were analyzed in this experiment.
In FIG. 7, Globin mRNA served as the template. A 5′ P-33 labeled primer (DNA 25-mer) was annealed to the template. Reactions were performed with varying concentrations of either Cy3.5-dCTP or dCTP alone. Inclusion of only one dNTP allowed incorporation of the next correct nucleotide alone. The sequence of the template-primer that allowed for the examination of single nucleotide “C” incorporation is shown below.
Lanes 1,2,3 and 4 contain 20, 2, 0.2, and 0.02 uM of dNTP or dye-dNTP. Lane with no label has no enzyme, to show the integrity of the starting P-33 labeled primer. Quantification of the single nucleotide extension product is one way to tell if DR change to in the enzyme led to any consequence. “P” indicates a radio labeled primer. “P+1” represents the elongated product by a single nucleotide or nucleotide analog. P+1 migrates slowly with the dye-dNTP conjugate. Note that the migration of Cy3.5 dCMP containing bands travel slowly on the gel compared to dCTP extended products. […] Essentially, incorporation is achieved at lower concentrations (less than 10 times) of dye-dNTP compared to that of the wild type polymerase. It is evident that the DR enzyme was able to incorporate Cy3.5 dCTP at concentrations as low as 0.2 uM (Cy3.5 dCTP) or even lower. […] In this experiment the template-primer is a mRNA annealed to radio labeled primer. Extension is monitored qualitatively as P+1 for the natural nucleotides and P+1* for dye labeled nucleotide. This is a promising first observation for potential use in microarray applications for cDNA probe labeling.

[3] = test system: human skeletal muscle mRNA; assay: cDNA labeling using Cy3/Cy5-dCTP over a wide reaction temperature range, microarray (FIGS. 14a and b); settings: reaction temperatures 37, 42, 45, 50, 55, 60 and 65 degrees; normalization factor of 2
Experimental: A 20 μl reaction Cy3 or Cy5 reaction had 1 μg of human skeletal muscle mRNA, oligo dT(25) and random nonamer primers and TtsFYDR polymerase enzyme in 1×reaction buffer (50 mM Tris, pH 8.0, 1 mM DDT, 40 mM KC, 100 uM dA,G and TTP and 50 um each of CTP and Cy3-dCTP or Cy5-dCTP depending on the reaction). Control mRNAs (APBiotech Inc.) of known sequence compositions were included in various concentrations to serve as dynamic range and gene expression ratio controls. Tts reactions were carried out at temperatures from 37, 42, 45, 50, 55, 60 and 65 degrees. For Superscript II, cDNA synthesis reactions were carried out at 42 C. (Life Technologies). Template RNA was hydrolyzed by alkali treatment and neutralized with HEPES.
Probes were purified using MultiScreen filters (Millipore) and quantified by spectrophotometry. Glass slides containing human cDNA gene targets were hybridized with equal amounts (30 pmol each) of Cy3 and Cy5 labeled cDNA probes. Slides were scanned using a GenePix® (Axon) scanner and quantified using ImageQuant software. A normalization factor of 2 (due to differences in the excitation efficiencies of Cy3 and Cy5) was applied to the observed ratio of raw flourescence signal. The figure illustrates precise determination of gene expression differences in Cy3 and Cy5 reactions.

[4] = test system: human skeletal muscle mRNA; assay: cDNA labeling using Cy3 and Cy5-dUTP, microarray (FIG. 10); settings: Cy3-dUTP or Cy5-dUTP, 50 degrees C.
Experimental: (§2) A typical 20 μl reaction Cy3 or Cy5 reaction had 1 μg of human skeletal muscle mRNA, oligo dT(25) and random nonamer primers and TtsFYDR polymerase enzyme in 1×reaction buffer (50 mM Tris, pH 8.0, 1 mM DDT, 40 mM KC, 100 uM dA,G and CTP and 50 um each of TTP and Cy3-dUTP or Cy5-dUTP depending on the reaction). Control mRNAs (APBiotech Inc.) of known sequence compositions were included in various concentrations to serve as dynamic range and gene expression ratio controls. Tts reactions were carried out at temperatures from 50 degrees C. Template RNA was hydrolyzed by alkali treatment and neutralized with HEPES.
(§3) Probes were purified using MultiScreen filters (Millipore) and quantified by spectrophotometry. Glass slides containing human cDNA gene targets were hybridized with equal amounts (30 pmol each) of Cy3 and Cy5 labeled cDNA probes. Slides were scanned using a GenePix® (Axon) scanner and quantified using ImageQuant software.

[5] = test system: human skeletal muscle mRNA; assay: cDNA labeling using Cy3 and Cy5-dCTP, microarray (FIG. 9); settings: Cy3-dCTP or Cy5-dCTP, 50 degrees C.
Experimental: as §2, with “TTP” for “CTP”, “CTP” for “TTP”, “Cy3-dCTP” for “Cy3-dUTP”, “Cy5-dCTP” for “Cy5-dUTP”
as §3

- concentration of Cy3.5-dCTP at which the enzyme was able to incorporate [1]: ≤ 0.2 µM
- concentration of Cy3.5 dCTP at which the enzyme was able to incorporate ([2]; 10 min single nucleotide incorporation): ≤ 0.2 µM
- fold less concentration of dCTP at which P+1 product is achieved ([2]; dCTP, compared with enzymes without the DR change): 10-100 fold
- lower concentration of dye-dNTP at which incorporation is achieved compared to wild type polymerase ([2]; dye-CTP (Cy3.5-dCTP)): less than 10 times
B1: ΔTtsF412YD426R: exonuclease deficient truncated Tts DNA polymerase I with F412Y and D426R changes (SEQ ID No. 7) (protein, listed as Thermoanaerobacter thermohydrosulfuricus)
chain: MYKFLIIDGSSLMYRAYYALPMLTTSEGLPTNALYGFTMMLIKLIEEEKPDYIAIAFDKKAPTFRHKEYQDYKATRQAMPEELAEQVDYLKEIIDGFNIKTLELEGYEADDIIGTISKLAEEKGMEVLVVTGDRDALQLVSDKVKIKISKKGITQMEEFDEKAILERYGITPQQFIDLKGLMGDKSDNIPGVPNIGEKTAIKLLKDFGTIENLIQNLSQLKGKIKENIENNKELAIMSKRLATIKRDIPIEIDFEEYKVKKFNEEKLLELFNKLEFFSLIDNIKKESSIEIVDNHKVEKWSKVDIKELVTLLQDNRNIAFYPLIYEGEIKKIAFSFGKDTVYIDVFQTEDLKEIFEKEDFEFTTHEIKDFLVRLSYKGIECKSKYIDTAVMAYLLNPSESNYDLDRVLKKYLKVDVPSYEGIFGKGRDKKKIEEIDENILADYICSRCVYLFDLKEKLMNFIEEMDMKKLLLEIEMPLVEVLKSMEVSGFTLDKEVLKELSQKIDDRIGEILDKIYKEAGYQFNVNSPKQLSEFLFEKLNLPVIKKTKTGYSTDSEVLEQLVPYNDIVSDIIEYRQLTKLKSTYIDGFLPLMDENNRVHSNFKQMVTATGRISSTEPNLQNIPIREEFGRQIRRAFIPRSRDGYIVSADYSQIELRVLAHVSGDEKLIESFMNNEDIHLRTASEVFKVPMEKVTPEMRRAAKAVNYGIIYGISDYGLSRRLKISRKEAKEYINNYFERYKGVKDYIEKIVRFAKENGYVTTIMNRRRYIPEINSRNFTQRSQAERLAMNAPIQGSAADIIKMAMVKVYNDLKKLKLKSKLILQVHDELVVDTYKDEVDIIKKILKENMENVVQLKVPLVVEIGVGPNWFLAK
- fold less concentration of dye-dCTP at which P+1 product is achieved ([1]; dye-dCTP, compared with enzymes without the DR change): 10-100 fold
- normalized observed ratios of Cy3/Cy5 signal versus target ratios [3]: very close to the target ratios
- incorporation of Cy3 versus Cy5 in cDNA probes [4]: near even incorporation of Cy3 and Cy5
- incorporation of Cy3 versus Cy5 in cDNA probes [5]: near even incorporation of Cy3 and Cy5
